Our source for the Kd values is PMC10315065 (Journal of Innate Immunity, 2023).

For this assay, the target named is human glyceraldehyde-3-phosphate dehydrogenase (GAPDH) (human, UniProt P04406 1-335, fluorescent dye NT-647 (Monolith NT Protein Labeling Kit RED-NHS)). In words: MST.
Sequence of human glyceraldehyde-3-phosphate dehydrogenase (GAPDH) (P04406 whole entry): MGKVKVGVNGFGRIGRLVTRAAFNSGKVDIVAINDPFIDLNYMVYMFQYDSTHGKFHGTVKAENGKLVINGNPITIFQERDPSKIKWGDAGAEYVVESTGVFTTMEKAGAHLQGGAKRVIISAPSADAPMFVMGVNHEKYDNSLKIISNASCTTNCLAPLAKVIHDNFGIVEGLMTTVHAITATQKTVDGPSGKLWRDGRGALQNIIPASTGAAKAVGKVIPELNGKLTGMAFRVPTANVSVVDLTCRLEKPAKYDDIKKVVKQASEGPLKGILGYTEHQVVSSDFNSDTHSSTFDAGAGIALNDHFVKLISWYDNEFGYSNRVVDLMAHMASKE

The molecule GLLRKGGEKIGEKLKKIGQKIKNFFQKLVPQPEQ [Mouse cathelicidin-related antimicrobial peptide] showed an equilibrium dissociation constant (Kd) of 472 nM.
